# Source: PMC2607524, “The role of conserved residues of chagasin in the inhibition of cysteine peptidases” (Febs Letters, 2008)
# T1: papain (UniProt P00784 134-345)
# T1 construct: source: bought: Sigma
# T1 sequence (looked up): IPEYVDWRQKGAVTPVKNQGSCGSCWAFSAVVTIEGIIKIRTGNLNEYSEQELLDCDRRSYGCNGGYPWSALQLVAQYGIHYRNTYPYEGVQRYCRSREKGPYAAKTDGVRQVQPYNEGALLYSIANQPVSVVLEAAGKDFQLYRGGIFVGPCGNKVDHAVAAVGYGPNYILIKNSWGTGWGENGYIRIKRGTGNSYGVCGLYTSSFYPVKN
# Molecular target: human cathepsin L (human)
# Experiment: enzyme inhibition kinetics (Ki for tight-binding inhibitors); peptidase incubated with different chagasin concentrations for 15 min at room temperature, residual hydrolysis of 5 μM Z-Phe-Arg-MCA; Ki from Kiapp with KM 1.5, 2.5 and 60 μM for cruzipain, cathepsin L and papain; methods: RB buffer (50 mM Na2PO4, pH 6.5, 200 mM NaCl, 5 mM EDTA, 2.5 mM DTT), 25 °C; footnote of Table 2: 50 mM Na2HPO4, 100 mM NaCl, 5 mM EDTA, pH 6.5, 5% DMSO, 2.5 mM DTT, 28 °C
# Settings: not given
row,Molecule,Ki [pM]
1,chagasin T31V (from UniProt Q966X9 1-110) (natural protein),9.7
2,chagasin T32A (from UniProt Q966X9 1-110) (natural protein),14
3,chagasin T32V (from UniProt Q966X9 1-110) (natural protein),20
4,chagasin T31A (from UniProt Q966X9 1-110) (natural protein),3.9
5,chagasin W93A (from UniProt Q966X9 1-110) (natural protein),825
6,chagasin T32S (from UniProt Q966X9 1-110) (natural protein),32
7,chagasin T31S (from UniProt Q966X9 1-110) (natural protein),4.9
8,chagasin ΔT31–T32 (devoid of residues T31 and T32) (from UniProt Q966X9 1-110) (natural protein),2200
9,chagasin T32Y (from UniProt Q966X9 1-110) (natural protein),2.7
10,chagasin P30A (from UniProt Q966X9 1-110) (natural protein),45
11,chagasin T31A/T32A double mutant (from UniProt Q966X9 1-110) (natural protein),1.8
12,chagasin T31Y (from UniProt Q966X9 1-110) (natural protein),6.8
13,"chagasin (recombinant His-tagged wild type) (natural protein, also called WT; wild type chagasin; source: E. coli M15/pRep4, purified (Ni metal chelate column, HQ ion exchange)) MSHKVTKAHNGATLTVAVGELVEIQLPSNPTTGFAWYFEGGTKESPNESMFTVENKYFPPDSKLLGAGGTEHFHVTVKAAGTHAVNLTYMRPWTGPSHDSERFTVYLKAN",7.3

# Molecular target: T1, papain
# Experiment: enzyme inhibition kinetics (Ki for tight-binding inhibitors); peptidase incubated with different chagasin concentrations for 15 min at room temperature, residual hydrolysis of 5 μM Z-Phe-Arg-MCA; Ki from Kiapp with KM 1.5, 2.5 and 60 μM for cruzipain, cathepsin L and papain; methods: RB buffer (50 mM Na2PO4, pH 6.5, 200 mM NaCl, 5 mM EDTA, 2.5 mM DTT), 25 °C; footnote of Table 2: 50 mM Na2HPO4, 100 mM NaCl, 5 mM …
# Settings: both partners purified
Molecule,Ki [pM],binding result
"chagasin (recombinant His-tagged wild type) (natural protein, also called WT; wild type chagasin; source: E. coli M15/pRep4, purified (Ni metal chelate column, HQ ion exchange)) MSHKVTKAHNGATLTVAVGELVEIQLPSNPTTGFAWYFEGGTKESPNESMFTVENKYFPPDSKLLGAGGTEHFHVTVKAAGTHAVNLTYMRPWTGPSHDSERFTVYLKAN",5 ± 0.7,–
"chagasin T31A/T32A double mutant (natural protein, pQE30 construct as m1; also called pGL1258; source: E. coli M15/pRep4, purified (Ni metal chelate column, HQ ion exchange)) MSHKVTKAHNGATLTVAVGELVEIQLPSNPAAGFAWYFEGGTKESPNESMFTVENKYFPPDSKLLGAGGTEHFHVTVKAAGTHAVNLTYMRPWTGPSHDSERFTVYLKAN",27 ± 1.5,–
"chagasin Y89S (natural protein, pQE30 construct as m1; also called pGL1120; source: E. coli M15/pRep4, purified (Ni metal chelate column, HQ ion exchange)) MSHKVTKAHNGATLTVAVGELVEIQLPSNPTTGFAWYFEGGTKESPNESMFTVENKYFPPDSKLLGAGGTEHFHVTVKAAGTHAVNLTSMRPWTGPSHDSERFTVYLKAN",316 ± 17,–
"chagasin Y89F (natural protein, pQE30 construct as m1; also called pGL1119; source: E. coli M15/pRep4, purified (Ni metal chelate column, HQ ion exchange)) MSHKVTKAHNGATLTVAVGELVEIQLPSNPTTGFAWYFEGGTKESPNESMFTVENKYFPPDSKLLGAGGTEHFHVTVKAAGTHAVNLTFMRPWTGPSHDSERFTVYLKAN",–,binds

# Molecular target: T2, cruzipain (Trypanosoma cruzi, UniProt P25779 123-467)
# T2 construct: also called T. cruzi CP cruzipain; major cysteine peptidase of T. cruzi
# Experiment: as above
# Settings: both partners purified
row,Molecule,Ki [pM]
1,"chagasin (recombinant His-tagged wild type) (natural protein, also called WT; wild type chagasin; source: E. coli M15/pRep4, purified (Ni metal chelate column, HQ ion exchange)) MSHKVTKAHNGATLTVAVGELVEIQLPSNPTTGFAWYFEGGTKESPNESMFTVENKYFPPDSKLLGAGGTEHFHVTVKAAGTHAVNLTYMRPWTGPSHDSERFTVYLKAN",7.6
2,"chagasin T31A/T32A double mutant (natural protein, pQE30 construct as m1; also called pGL1258; source: E. coli M15/pRep4, purified (Ni metal chelate column, HQ ion exchange)) MSHKVTKAHNGATLTVAVGELVEIQLPSNPAAGFAWYFEGGTKESPNESMFTVENKYFPPDSKLLGAGGTEHFHVTVKAAGTHAVNLTYMRPWTGPSHDSERFTVYLKAN",1060
3,"chagasin T32A (natural protein, pQE30 construct as m1; also called pGL1211; source: E. coli M15/pRep4, purified (Ni metal chelate column, HQ ion exchange)) MSHKVTKAHNGATLTVAVGELVEIQLPSNPTAGFAWYFEGGTKESPNESMFTVENKYFPPDSKLLGAGGTEHFHVTVKAAGTHAVNLTYMRPWTGPSHDSERFTVYLKAN",16
4,"chagasin T31Y (natural protein, pQE30 construct as m1; also called pGL1210; source: E. coli M15/pRep4, purified (Ni metal chelate column, HQ ion exchange)) MSHKVTKAHNGATLTVAVGELVEIQLPSNPYTGFAWYFEGGTKESPNESMFTVENKYFPPDSKLLGAGGTEHFHVTVKAAGTHAVNLTYMRPWTGPSHDSERFTVYLKAN",747
5,"chagasin T32S (natural protein, pQE30 construct as m1; also called pGL1195; source: E. coli M15/pRep4, purified (Ni metal chelate column, HQ ion exchange)) MSHKVTKAHNGATLTVAVGELVEIQLPSNPTSGFAWYFEGGTKESPNESMFTVENKYFPPDSKLLGAGGTEHFHVTVKAAGTHAVNLTYMRPWTGPSHDSERFTVYLKAN",20
6,"chagasin T32Y (natural protein, pQE30 construct as m1; also called pGL1198; source: E. coli M15/pRep4, purified (Ni metal chelate column, HQ ion exchange)) MSHKVTKAHNGATLTVAVGELVEIQLPSNPTYGFAWYFEGGTKESPNESMFTVENKYFPPDSKLLGAGGTEHFHVTVKAAGTHAVNLTYMRPWTGPSHDSERFTVYLKAN",16
7,"chagasin Y89S (natural protein, pQE30 construct as m1; also called pGL1120; source: E. coli M15/pRep4, purified (Ni metal chelate column, HQ ion exchange)) MSHKVTKAHNGATLTVAVGELVEIQLPSNPTTGFAWYFEGGTKESPNESMFTVENKYFPPDSKLLGAGGTEHFHVTVKAAGTHAVNLTSMRPWTGPSHDSERFTVYLKAN",25
8,"chagasin W93A (natural protein, pQE30 construct as m1; also called pGL1199; source: E. coli M15/pRep4, purified (Ni metal chelate column, HQ ion exchange)) MSHKVTKAHNGATLTVAVGELVEIQLPSNPTTGFAWYFEGGTKESPNESMFTVENKYFPPDSKLLGAGGTEHFHVTVKAAGTHAVNLTYMRPATGPSHDSERFTVYLKAN",31
9,"chagasin T31S (natural protein, pQE30 construct as m1; also called pGL1299; source: E. coli M15/pRep4, purified (Ni metal chelate column, HQ ion exchange)) MSHKVTKAHNGATLTVAVGELVEIQLPSNPSTGFAWYFEGGTKESPNESMFTVENKYFPPDSKLLGAGGTEHFHVTVKAAGTHAVNLTYMRPWTGPSHDSERFTVYLKAN",11
10,"chagasin P30A (natural protein, pQE30 construct as m1; also called pGL1194; source: E. coli M15/pRep4, purified (Ni metal chelate column, HQ ion exchange)) MSHKVTKAHNGATLTVAVGELVEIQLPSNATTGFAWYFEGGTKESPNESMFTVENKYFPPDSKLLGAGGTEHFHVTVKAAGTHAVNLTYMRPWTGPSHDSERFTVYLKAN",20
11,"chagasin T32E (natural protein, pQE30 construct as m1; also called pGL1197; source: E. coli M15/pRep4, purified (Ni metal chelate column, HQ ion exchange)) MSHKVTKAHNGATLTVAVGELVEIQLPSNPTEGFAWYFEGGTKESPNESMFTVENKYFPPDSKLLGAGGTEHFHVTVKAAGTHAVNLTYMRPWTGPSHDSERFTVYLKAN",11
12,"chagasin T32V (natural protein, pQE30 construct as m1; also called pGL1196; source: E. coli M15/pRep4, purified (Ni metal chelate column, HQ ion exchange)) MSHKVTKAHNGATLTVAVGELVEIQLPSNPTVGFAWYFEGGTKESPNESMFTVENKYFPPDSKLLGAGGTEHFHVTVKAAGTHAVNLTYMRPWTGPSHDSERFTVYLKAN",193
13,"chagasin T31A (natural protein, pQE30 construct as m1; also called pGL1209; source: E. coli M15/pRep4, purified (Ni metal chelate column, HQ ion exchange)) MSHKVTKAHNGATLTVAVGELVEIQLPSNPATGFAWYFEGGTKESPNESMFTVENKYFPPDSKLLGAGGTEHFHVTVKAAGTHAVNLTYMRPWTGPSHDSERFTVYLKAN",317
14,"chagasin Y89F (natural protein, pQE30 construct as m1; also called pGL1119; source: E. coli M15/pRep4, purified (Ni metal chelate column, HQ ion exchange)) MSHKVTKAHNGATLTVAVGELVEIQLPSNPTTGFAWYFEGGTKESPNESMFTVENKYFPPDSKLLGAGGTEHFHVTVKAAGTHAVNLTFMRPWTGPSHDSERFTVYLKAN",20
15,"chagasin T31V (natural protein, pQE30 construct as m1; also called pGL1298; source: E. coli M15/pRep4, purified (Ni metal chelate column, HQ ion exchange)) MSHKVTKAHNGATLTVAVGELVEIQLPSNPVTGFAWYFEGGTKESPNESMFTVENKYFPPDSKLLGAGGTEHFHVTVKAAGTHAVNLTYMRPWTGPSHDSERFTVYLKAN",70
16,"chagasin ΔT31–T32 (devoid of residues T31 and T32) (natural protein, source: E. coli M15/pRep4, purified (Ni metal chelate column, HQ ion exchange)) MSHKVTKAHNGATLTVAVGELVEIQLPSNPGFAWYFEGGTKESPNESMFTVENKYFPPDSKLLGAGGTEHFHVTVKAAGTHAVNLTYMRPWTGPSHDSERFTVYLKAN",5870
